The values below are quoted from earlier work in publication PMC2847435.

The Kd is a measure of binding affinity in units of concentration.

Data set [1] deals with PDZ ligand peptide VKESLV.
Data set [2] has as its target PDZ ligand peptide VKQSLL.
Data set [3] concerns the target Src pY527 tail pY527 tail (UniProt P12931).

For the substance “syntrophin PDZ domain PDZ (from UniProt Q61234)”, the Kd in data set [1] was 8 µM; in data set [2], 100 µM. Turning to “Src SH2 domain SH2 (from UniProt P12931)”, the Kd in data set [3] is 29 µM.
